Abundance fitness data for 167 variants are collected here from the Human Domainome abundance scans (Beltran et al. 2025).

First the molecules themselves.
B1: Transitional endoplasmic reticulum ATPase, residues 26 to 106; numbered along this chain, P55072 (parent)
chain: LIVDEAINEDNSVVSLSQPKMDELQLFRGDTVLLKGKKRREAVCIVLSDDTCSDEKIRMNRVVRNNLRVRLGDVISIQPCP

± gives the uncertainty stated by the source.

This data set covers variants of B1. Briefly: abundance fitness (aPCA) (normalised: wild type 0, dead -1); higher = more abundant; growth selection in yeast, the domain comes from the species named. As to conditions: Homo sapiens.
As to L1R, the abundance fitness is -0.744 ± 0.23. As for L1Y, the figure is -0.582 ± 0.26; as for V3K, -0.639 ± 0.23. As to V3A, the abundance fitness was -0.242 ± 0.066. Regarding V3S, the abundance fitness is -0.773 ± 0.14.

Take V3P: the abundance fitness is -0.948 ± 0.31. On to V3W, for which the abundance fitness was -0.952 ± 0.17.

In the case of I45P, the abundance fitness was -0.157 ± 0.12. As to I45F, the abundance fitness was -0.018 ± 0.076.

As to I45L, the abundance fitness was -0.016 ± 0.059. The figure for S48D is -0.137 ± 0.1. As for S48M, the figure is -0.05 ± 0.094; as for S48Y, -0.168 ± 0.1; as for S48N, 0.049 ± 0.14. The figure for G72R is -0.177 ± 0.051. For the variant G72F, the abundance fitness was -0.336 ± 0.22.

Consider G72E, for which the abundance fitness was -0.23 ± 0.088.

In the case of G72M, the abundance fitness was -0.392 ± 0.12.

Consider S12V, for which the abundance fitness is -0.067 ± 0.043.

With S12Q, the abundance fitness stood at 0.093 ± 0.068. As for S12M, the figure is 0.088 ± 0.093; as for S12D, 0.019 ± 0.066; as for E55Q, 0.003 ± 0.084. E55D: the abundance fitness was -0.174 ± 0.13.

Turning to E55A, the abundance fitness is -0.019 ± 0.061.

In the case of E55V, the abundance fitness is -0.053 ± 0.046. As for E55C, the abundance fitness is 0.002 ± 0.068. As for E55M, the figure is -0.143 ± 0.097; as for E55L, 0.003 ± 0.059; as for R64G, -0.638 ± 0.08.

For R64H, the abundance fitness was -0.415 ± 0.1. As for R64M, the figure is -0.036 ± 0.16; as for R64P, -1.06 ± 0.3; as for V74C, -0.039 ± 0.08. As for V74K, the figure is 0.008 ± 0.13.

Take V74R: the abundance fitness stood at 0.036 ± 0.062. For V74M, the abundance fitness is -0.107 ± 0.093. Consider S15Y, for which the abundance fitness was found to be 0 ± 0.095. On to S15F, for which the abundance fitness is 0.087 ± 0.11. As for S15N, the figure is 0.08 ± 0.1; as for S15P, -0.591 ± 0.097; as for S15H, -0.039 ± 0.09.

Turning to S53T, the abundance fitness is -0.019 ± 0.072. The figure for S53A is -0.019 ± 0.048; for S53V it is -0.022 ± 0.053.

For S53P, the abundance fitness is -0.142 ± 0.1.

Regarding S53R, the abundance fitness is -0.035 ± 0.042. As to S53E, the abundance fitness is 0.003 ± 0.091. The figure for T31Y is -0.161 ± 0.14; for T31C it is -0.262 ± 0.11.

Take T31E: the abundance fitness is 0.041 ± 0.064. In the case of T31G, the abundance fitness is -0.063 ± 0.042. Regarding T31D, the abundance fitness is -0.27 ± 0.1. As for T31R, the figure is 0.053 ± 0.047. As to T31M, the abundance fitness was -0.004 ± 0.13. L16E: the abundance fitness is -0.762 ± 0.15. The figure for L16P is -0.788 ± 0.13; for L16K it is -0.783 ± 0.15.

For the variant N60A, the abundance fitness is -0.009 ± 0.075. Consider N60Q, for which the abundance fitness was -0.307 ± 0.1.

For the variant N60P, the abundance fitness is -0.046 ± 0.079. The figure for N60W is -0.899 ± 0.24. With L47D, the abundance fitness is -0.056 ± 0.076. As for L47K, the figure is -0.036 ± 0.076. With L47V, the abundance fitness was -0.018 ± 0.052. As for L47T, the figure is -0.116 ± 0.099; as for L47F, 0.052 ± 0.12; as for L47G, 0.024 ± 0.043. With D50G, the abundance fitness came out at 0.031 ± 0.046. As for D50K, the abundance fitness is -0.105 ± 0.18. As for D50P, the figure is -0.105 ± 0.11; as for D50M, 0.025 ± 0.1. The figure for D50R is -0.057 ± 0.054; for R68M it is 0.01 ± 0.087; for R68H it is -0.009 ± 0.13. On to D22I, for which the abundance fitness was -0.118 ± 0.085. The figure for D22A is -0.109 ± 0.05. As for D22R, the figure is -0.015 ± 0.04.

Turning to D22Q, the abundance fitness was determined as 0.023 ± 0.092. As for D22K, the figure is -0.063 ± 0.083. Consider R40W, for which the abundance fitness is -0.059 ± 0.16. In the case of R40V, the abundance fitness was 0.027 ± 0.045. The figure for I75E is -0.633 ± 0.19; for I75C it is -0.265 ± 0.12; for I75V it is -0.039 ± 0.069. As to I75K, the abundance fitness is -1.05 ± 0.3. On to V62R, for which the abundance fitness is -0.013 ± 0.056.

Take V62G: the abundance fitness is 0.025 ± 0.052.

For V62M, the abundance fitness was 0.022 ± 0.087.

Turning to V62S, the abundance fitness amounted to 0.051 ± 0.062. V62P: the abundance fitness is -0.378 ± 0.11.

Take E9V: the abundance fitness is -0.157 ± 0.052. The figure for E9S is 0.043 ± 0.061. The figure for L26Q is -0.763 ± 0.13. As for L26R, the figure is -0.939 ± 0.088.

In the case of L26D, the abundance fitness was -0.768 ± 0.26. As for N66Y, the figure is -0.176 ± 0.13. In the case of N66G, the abundance fitness is -0.021 ± 0.051. Regarding N66S, the abundance fitness was -0.044 ± 0.061. The figure for E41K is 0.045 ± 0.095; for E41S it is -0.09 ± 0.057; for E41T it is -0.123 ± 0.098.

For the variant E41I, the abundance fitness is -0.312 ± 0.14. The figure for E41L is -0.296 ± 0.062; for E41V it is -0.213 ± 0.056.

V14Y: the abundance fitness is -0.803 ± 0.23. Consider V14I, for which the abundance fitness stood at 0.042 ± 0.084. The figure for V14Q is -1.02 ± 0.26; for V14D it is -0.704 ± 0.12; for V13M it is -0.143 ± 0.083. As for V13G, the figure is -0.06 ± 0.03. For the variant V13K, the abundance fitness was -0.183 ± 0.064. The figure for V13Q is -0.112 ± 0.065; for V13H it is 0.053 ± 0.12; for V13C it is 0.056 ± 0.11. Consider V13P, for which the abundance fitness was -0.457 ± 0.088.

With V13D, the abundance fitness is -0.103 ± 0.079.

With C80H, the abundance fitness was -0.064 ± 0.14. Turning to C80T, the abundance fitness is -0.038 ± 0.091. Take C80K: the abundance fitness was -0.505 ± 0.49. As for C80R, the figure is -0.066 ± 0.071; as for I2N, -0.059 ± 0.14; as for I2W, -0.302 ± 0.11. The figure for I2R is -0.162 ± 0.049; for I2A it is -0.45 ± 0.12; for I2T it is 0.024 ± 0.083. Q78L: the abundance fitness is -0.01 ± 0.06. As for Q78I, the figure is -0.023 ± 0.12; as for Q78S, -0.031 ± 0.078; as for Q78Y, 0.024 ± 0.33. The figure for K37E is -0.035 ± 0.12; for K37W it is -0.183 ± 0.1. As for D49R, the figure is -0.627 ± 0.064. In the case of D49E, the abundance fitness was -0.094 ± 0.13. On to D49M, for which the abundance fitness is -0.78 ± 0.2. Consider D49L, for which the abundance fitness is -0.904 ± 0.15. As to I7F, the abundance fitness was 0.009 ± 0.099. The figure for I7G is -0.011 ± 0.031. Take I7Q: the abundance fitness is -0.17 ± 0.089. As for I7R, the figure is -0.042 ± 0.044. The figure for G29W is -0.268 ± 0.062. G29P: the abundance fitness is -1.06 ± 0.28. As for A42L, the figure is -0.049 ± 0.056. For A42P, the abundance fitness is -0.825 ± 0.15. For the variant A42S, the abundance fitness turned out to be 0.085 ± 0.069. As for A42R, the figure is 0.028 ± 0.051.

Consider R70N, for which the abundance fitness is -0.101 ± 0.12. In the case of R70Y, the abundance fitness was determined as 0.005 ± 0.15.

Regarding R70A, the abundance fitness was determined as 0.043 ± 0.062. Consider P81L, for which the abundance fitness is -0.405 ± 0.21. With P81N, the abundance fitness is 0.073 ± 0.17. With P81G, the abundance fitness is -0.451 ± 0.22. As for P81T, the figure is -0.013 ± 0.12. On to P81Y, for which the abundance fitness is -0.224 ± 0.16. The figure for D73P is -0.915 ± 0.19. Consider R39N, for which the abundance fitness is -0.17 ± 0.11. On to V46C, for which the abundance fitness is -0.048 ± 0.095. As to V46I, the abundance fitness was -0.175 ± 0.07. As for V46R, the figure is -0.951 ± 0.15; as for V46Y, -0.911 ± 0.23. Regarding F27M, the abundance fitness is -0.045 ± 0.077. As for F27Y, the figure is -0.109 ± 0.075; as for F27Q, -0.098 ± 0.1.

Regarding F27T, the abundance fitness worked out at 0.127 ± 0.06.

For the variant F27V, the abundance fitness was 0.044 ± 0.048. On to F27R, for which the abundance fitness came to 0.009 ± 0.057.

On to L67W, for which the abundance fitness was -0.976 ± 0.17.
